Measurements reported in publication PMC1654158.

What was measured:
[1] = target: T1, Signal peptide peptidase (SPP) fluorescent fusion protein (CFP or YFP fused to the NH2- or COOH-terminus of SPP), Q8TCT9; test: FRET or BRET; FLIM (fluorescence lifetime imaging microscopy) in live CHO cells co-transfected with CFP-SPP (donor) and YFP-SPP (acceptor) fusion constructs, 24 hours post-transfection, in Hank's Balanced Salt Solution; donor-only (empty vector) as negative control; conditions: remark: other sources report otherwise
T1 chain: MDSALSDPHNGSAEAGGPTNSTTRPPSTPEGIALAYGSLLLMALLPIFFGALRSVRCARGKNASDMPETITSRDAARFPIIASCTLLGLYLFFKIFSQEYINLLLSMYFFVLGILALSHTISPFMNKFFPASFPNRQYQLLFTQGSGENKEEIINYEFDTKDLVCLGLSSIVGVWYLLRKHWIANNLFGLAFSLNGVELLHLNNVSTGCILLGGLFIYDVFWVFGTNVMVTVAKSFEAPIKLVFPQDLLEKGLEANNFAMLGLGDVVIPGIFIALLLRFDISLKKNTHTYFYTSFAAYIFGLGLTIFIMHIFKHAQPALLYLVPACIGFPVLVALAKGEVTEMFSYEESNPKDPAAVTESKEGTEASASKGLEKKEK

[2] = target: T2, Epitope tagged signal peptide peptidase (SPP): COOH-terminal V5 tagged SPP (SPPCTV5) and NH2-terminal FLAG tagged SPP (…), Q8TCT9; test: FRET or BRET; FLIM in fixed (4% paraformaldehyde), permeabilised HEK cells stably overexpressing SPPCTV5 and …; goat anti-V5 labelled with Alexa 488 (donor), mouse anti-FLAG labelled with Cy3 (acceptor); cells expressing only SPPCTV5 as negative control; conditions: remark: other sources report otherwise
T2 chain: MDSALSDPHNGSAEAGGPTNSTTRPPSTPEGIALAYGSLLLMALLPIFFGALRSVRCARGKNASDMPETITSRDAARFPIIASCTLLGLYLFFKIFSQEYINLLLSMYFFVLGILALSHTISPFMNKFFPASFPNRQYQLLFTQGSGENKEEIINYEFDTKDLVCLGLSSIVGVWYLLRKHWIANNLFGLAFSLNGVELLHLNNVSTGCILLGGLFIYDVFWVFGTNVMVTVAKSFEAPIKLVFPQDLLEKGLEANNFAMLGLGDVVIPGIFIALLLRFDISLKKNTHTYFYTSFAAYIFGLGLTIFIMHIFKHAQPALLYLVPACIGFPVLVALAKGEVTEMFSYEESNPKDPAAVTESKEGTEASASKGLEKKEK

Binder	CFP donor lifetime (donor CFP at COOH-terminus of SPP, acceptor YFP at COOH-terminus of SPP; donor only 2267 psec) [1] [psec]	CFP donor lifetime (donor CFP at NH2-terminus of SPP, acceptor YFP at COOH-terminus of SPP; donor only 2267 psec) [1] [psec]	CFP donor lifetime (donor CFP at NH2-terminus of SPP, acceptor YFP at NH2-terminus of SPP; donor only 2267 psec) [1] [psec]	Alexa 488 donor lifetime (donor Alexa 488 labeled SPPCTV5, acceptor Cy3 labeled …) [2] [psec]	Alexa 488 donor lifetime (donor Alexa 488 labeled SPPCTV5, acceptor Cy3 labeled …; donor only 2504 psec) [2] [psec]
Signal peptide peptidase (SPP) fluorescent fusion protein (CFP or YFP fused to the NH2- or COOH-terminus of SPP), Q8TCT9 1-377 (enzyme) MDSALSDPHNGSAEAGGPTNSTTRPPSTPEGIALAYGSLLLMALLPIFFGALRSVRCARGKNASDMPETITSRDAARFPIIASCTLLGLYLFFKIFSQEYINLLLSMYFFVLGILALSHTISPFMNKFFPASFPNRQYQLLFTQGSGENKEEIINYEFDTKDLVCLGLSSIVGVWYLLRKHWIANNLFGLAFSLNGVELLHLNNVSTGCILLGGLFIYDVFWVFGTNVMVTVAKSFEAPIKLVFPQDLLEKGLEANNFAMLGLGDVVIPGIFIALLLRFDISLKKNTHTYFYTSFAAYIFGLGLTIFIMHIFKHAQPALLYLVPACIGFPVLVALAKGEVTEMFSYEESNPKDPAAVTESKEGTEASASKGLEKKEK	1490	1530	1760		
Epitope tagged signal peptide peptidase (SPP): COOH-terminal V5 tagged SPP (SPPCTV5) and NH2-terminal FLAG tagged SPP (…), Q8TCT9 1-377 (enzyme) MDSALSDPHNGSAEAGGPTNSTTRPPSTPEGIALAYGSLLLMALLPIFFGALRSVRCARGKNASDMPETITSRDAARFPIIASCTLLGLYLFFKIFSQEYINLLLSMYFFVLGILALSHTISPFMNKFFPASFPNRQYQLLFTQGSGENKEEIINYEFDTKDLVCLGLSSIVGVWYLLRKHWIANNLFGLAFSLNGVELLHLNNVSTGCILLGGLFIYDVFWVFGTNVMVTVAKSFEAPIKLVFPQDLLEKGLEANNFAMLGLGDVVIPGIFIALLLRFDISLKKNTHTYFYTSFAAYIFGLGLTIFIMHIFKHAQPALLYLVPACIGFPVLVALAKGEVTEMFSYEESNPKDPAAVTESKEGTEASASKGLEKKEK				2200	1980
